Data reported in the supplement of paper PMC12667976.
± gives the standard error.

B1: library; numbered along this chain (parent)
chain: MATDAALRRLLRLHRTEIAVAVDSAFPLLHALADHDVVPEDKFQETLHLKEKEGCPQAFHALLSWLLTQDSTAILDFWRVLFKDYNLERYGRLQPILDSFPKDVDLSQPRKGRKPPAVPKALVPPPRLPTKRKASEEARAAAPAALTPRGTASPGSQLKAKPPKKPESSAEQQRLPLGNGIQTMSASVQRAVAMSSGDVPGARGAVEGILIQQVFESGGSKKCIQVGGEFYTPSKFEDSGSGKNKARSSSGPKPLVRAKGAQGAAPGGGEARLGQQGSVPAPLALPSDPQLHQKNEDECAVCRDGGELICCDGCPRAFHLACLSPPLREIPSGTWRCSSCLQATVQEVQPRAEEPRPQEPPVETPLPPGLRSAGEEVRGPPGEPLAGMDTTLVYKHLPAPPSAAPLPGLDSSALHPLLCVGPEGQQNLAPGARCGVCGDGTDVLRCTHCAAAFHWRCHFPAGTSRPGTGLRCRSCSGDVTPAPVEGVLAPSPARLAPGPAKDDTASHEPALHRDDLESLLSEHTFDGILQWAIQSMARPAAPFPS

Variants of: B1
Assay: AIRE transcriptional activation functional score (insulin promoter-GFP; nonsense median 0, synonymous median 1) (normalised score); higher = higher AIRE activity (more reporter activation)
Conditions: with insulin promoter-GFP reporter in HEK293
Description: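 Deep mutational scan of full-length human AIRE (codon-optimized cDNA, DT-POPCode NNN libraries over three regions) integrated at a Bxb1 landing pad in HEK293 cells carrying an insulin core promoter-GFP reporter at a Flp-In site. Cells were sorted for the top 10% GFP about 14 days after transfection. Variant frequency log-ratios (select vs non-select, TileSeq) were rescaled so that the nonsense median is 0 and the synonymous median is 1, then averaged over biological replicates.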

| Variant | AIRE transcriptional activation functional score |
| --- | --- |
| G201I | 1.23 ± 0.22 |
| G201P | 0.598 ± 0.15 |
| A6E | 1.37 ± 0.1 |
| L255A | 0.9 ± 0.5 |
| G240H | 0.0803 ± 0.12 |
| G240P | 0.78 ± 0.63 |
| A505C | 0.52 ± 0.2 |
| W455I | 0.29 ± 0.38 |
| G228I | -0.341 ± 0.56 |
| G228A | 0.509 ± 0.13 |
| D502H | 1.15 ± 0.094 |
| D502P | 0.765 ± 0.28 |
| D502W | 1.04 ± 0.047 |
| D439L | 0.586 ± 0.25 |
| A403H | 1.02 ± 0.23 |
| P280C | 0.574 ± 0.13 |
| P280H | 1.04 ± 0.14 |
| L397D | 0.808 ± 0.1 |
| N295E | 1.27 ± 0.02 |
| A461D | 0.676 ± 0.16 |
| A461W | 1.01 ± 0.044 |
| A461Q | 0.964 ± 0.089 |
| C314N | 1.03 ± 0.054 |
| A482R | 0.557 ± 0.26 |

| Variant | AIRE transcriptional activation functional score |
| --- | --- |
| P143A | 1.18 ± 0.61 |
| D410F | 1.06 ± 0.17 |
| Q426A | -0.467 ± 0.31 |
| L488M | 0.976 ± 0.11 |
| L488T | 1.18 ± 0.22 |
| L488F | 1.13 ± 0.078 |
| P266D | 0.85 ± 0.068 |
| G382H | 1.29 ± 0.5 |
| A300C | 1.39 ± 0.17 |
| V487S | 0.901 ± 0.14 |
| G438P | 0.303 ± 0.33 |
| L146W | 1.42 ± 0.2 |
| L49S | -0.858 ± 0.78 |
| L49N | -0.822 ± 0.12 |
| L62M | 0.558 ± 0.11 |
| P124R | 0.769 ± 0.43 |
| P124C | 1.15 ± 0.32 |
| G268T | 0.742 ± 0.73 |
| P325T | 0.777 ± 0.25 |
| L177E | -0.132 ± 0.43 |
| P254L | 1.01 ± 0.3 |
| H448Q | 1.05 ± 0.24 |
| H448Y | 1.26 ± 0.16 |
| L32Y | 0.28 ± 0.36 |

| Variant | AIRE transcriptional activation functional score |
| --- | --- |
| S185R | 0.854 ± 0.2 |
| S185A | 0.878 ± 0.34 |
| S185C | 0.855 ± 0.08 |
| A540K | 0.195 ± 0.23 |
| S187I | 0.599 ± 0.29 |
| S187N | 0.716 ± 0.092 |
| D515P | 0.67 ± 0.093 |
| R149V | 0.621 ± 0.44 |
| P125E | 0.892 ± 0.15 |
| I74W | 0.39 ± 0.23 |
| Q57W | -0.29 ± 0.23 |
| Q212T | 0.447 ± 0.065 |
| E522A | -0.0825 ± 0.095 |
| R89G | 0.255 ± 0.42 |
| V484S | 0.906 ± 0.29 |
| P176H | 1.07 ± 0.25 |
| Q290E | 0.67 ± 0.12 |
| A386V | 0.968 ± 0.33 |
| A386K | 1.1 ± 0.1 |
| L308G | 0.784 ± 0.17 |
| L75N | 1.01 ± 0.29 |
| R494C | 0.847 ± 0.14 |
| V362R | 1.14 ± 0.17 |
| V362G | 1.02 ± 0.17 |

| Variant | AIRE transcriptional activation functional score |
| --- | --- |
| V362I | 1.32 ± 0.12 |
| V362T | 0.915 ± 0.16 |
| L520P | -0.00959 ± 0.27 |
| A541K | 0.252 ± 0.083 |
| S338K | 1.08 ± 0.12 |
| A33D | -1.07 ± 0.73 |
| G204I | 0.113 ± 0.17 |
| P326M | -0.264 ± 0.19 |
| K235F | 0.827 ± 0.3 |
| K235S | 0.877 ± 0.46 |
| A321M | 1.58 ± 0.032 |
| P368G | 1.05 ± 0.075 |
| G155H | 1.71 ± 0.16 |
| G305A | 0.453 ± 0.26 |
| G305F | 0.497 ± 0.098 |
| K114R | 0.793 ± 0.29 |
| Q358N | 1.18 ± 0.22 |
| V301A | 1.01 ± 0.26 |
| A25T | 0.533 ± 0.11 |
| T344H | 1.29 ± 0.11 |
| F525Q | -0.479 ± 0.069 |
| S107K | 0.75 ± 0.073 |
| F59W | 0.208 ± 0.13 |
| R15F | 0.0396 ± 0.61 |

| Variant | AIRE transcriptional activation functional score |
| --- | --- |
| G150W | 2.25 ± 0.039 |
| T390N | 1.09 ± 0.16 |
| T390C | 0.472 ± 0.29 |
| C322T | 1.21 ± 0.25 |
| E229V | 0.158 ± 0.15 |
| Q425M | 0.974 ± 0.078 |
| L414I | 1.45 ± 0.096 |
| A500W | 1.42 ± 0.033 |
| Y394C | 0.576 ± 0.24 |
| P27R | 0.196 ± 0.62 |
| Q349V | 1.13 ± 0.22 |
| Q349F | 0.896 ± 0.13 |
| P542C | 1.05 ± 0.21 |
| F77A | 0.257 ± 0.36 |
| F77N | -0.429 ± 1 |
| R356L | 0.928 ± 0.14 |
| I224D | 0.864 ± 0.15 |
| M388G | 0.832 ± 0.22 |
| M388V | 1.49 ± 0.45 |
| M388N | 0.557 ± 0.46 |
| P148Y | 1.97 ± 0.079 |
| L323E | 1.47 ± 0.11 |
| P315C | 0.985 ± 0.44 |
| P289G | 1.14 ± 0.17 |

| Variant | AIRE transcriptional activation functional score |
| --- | --- |
| P289F | 0.919 ± 0.29 |
| S474C | 0.824 ± 0.33 |
| R203W | 0.289 ± 0.037 |
| G469F | 1.42 ± 0.095 |
| A134G | -0.0179 ± 0.3 |
| S24R | 0.239 ± 0.83 |
| V188N | 0.669 ± 0.21 |
| L7Q | 0.381 ± 0.63 |
| A121P | 0.967 ± 0.48 |
| L13R | 1.36 ± 0.45 |
| G218L | 1.01 ± 0.17 |
| L519M | 0.992 ± 0.07 |
| Y231A | 0.676 ± 0.27 |
| Y231S | 0.49 ± 0.12 |
| Y231M | 0.624 ± 0.023 |
| Y231P | 0.54 ± 0.36 |
| L516P | 0.365 ± 0.53 |
| P367V | 0.854 ± 0.29 |
| S64L | -0.114 ± 0.42 |
| P483K | 0.675 ± 0.19 |
| R456G | 1.27 ± 0.27 |
| R473G | 0.848 ± 0.2 |
| S248P | 1.33 ± 0.28 |
| S372P | 1.07 ± 0.29 |

| Variant | AIRE transcriptional activation functional score |
| --- | --- |
| C311A | 1.11 ± 0.33 |
| H415P | 1.11 ± 0.11 |
| P384G | 1.62 ± 0.15 |
| A31V | -0.00796 ± 0.32 |
| A31D | 0.894 ± 0.32 |
| K245E | 0.245 ± 0.28 |
| A117V | 0.34 ± 0.65 |
| A117F | 1.04 ± 0.38 |
| A117N | 0.792 ± 0.33 |
| L392Q | 1.18 ± 0.099 |
| Q44I | 0.916 ± 0.89 |
| Q44R | 0.783 ± 0.72 |
| Q44A | 0.712 ± 0.51 |
| C55T | 1.49 ± 0.65 |
| T364W | 1.73 ± 0.03 |
| D304F | 0.0957 ± 0.81 |
| D304E | 0.883 ± 0.2 |
| A532R | 0.215 ± 0.15 |
| Q346S | 1.06 ± 0.16 |
| C446V | -0.492 ± 0.2 |
| A271T | 0.847 ± 0.23 |
| H458A | 0.981 ± 0.067 |
| A205K | 1.17 ± 0.11 |
